Data as given in article PMC5387315, “Functional and structural studies on the Neisseria gonorrhoeae GmhA, the first enzyme in the glycero‐manno‐heptose biosynthesis pathways, demonstrate a critical role in lipooligosaccharide synthesis and gonococcal viability” (MicrobiologyOpen, 2017).

Biological target: the molecule itself
Experiment: SEC; HiLoad 16/600 Superdex 75 pg, 20 mmol/L Tris-HCl pH 8.0, 500 mmol/L NaCl, 1 ml/min; size by Gel Filtration Standard (Bio-Rad)

B1: recombinant Neisseria gonorrhoeae sedoheptulose-7-phosphate isomerase GmhA, untagged (rGmhAGC) (enzyme, Neisseria gonorrhoeae FA1090, UniProt Q5F5E3 1-197, looked up)
chain: MTTLQERVAAHFAESIRAKQEAEKILVEPTVQAAELMLQCLMNDGKILACGNGGSAADAQHFAAEMTGRFEKERMELAAVALTTDTSALTAIGNDYGFDHVFSKQVRALGRAGDVLVGISTSGNSANVIEAVKAAHERDMHVIALTGRDGGKIAAMLKDTDVLLNVPHPRTARIQENHILLIHAMCDCIDSVLLEGM
notes: GmhA (sedoheptulose-7-phosphate isomerase) of N. gonorrhoeae FA1090, encoded by ngo1986; 197 amino acids, predicted mass 21.093 kDa; ngo1986 amplified without its stop codon and cloned into NcoI/HindIII of pRSF-NT; His tag removed by TEV protease; also called NGO1986; 6 × His-tag-free rGmhAGC; source: E. coli BL21(DE3), purified (IMAC, TEV cleavage, Ni-NTA); not shown: His6, N-terminal, cleaved
  stoichiometry N: 4
